Results on two molecules are retold here after patent US20030166587A1.

Non-standard residues stand in square brackets, D forms with d. No end group written: not given here. pS = N[C@@H](COP(=O)(O)O)C(=O)O

The test addresses specific IκB E3 ubiquitin ligase activity of HeLa extract. The experiment in a line: cell-based or functional assay.

For CKKERLLDDRHD[pS]GLD[pS]MKDEE [pp21, doubly phosphorylated IκBα peptide], the IC50 of inhibition of pIκBα ubiquitination (in vitro ubiquitination assay in HeLa extract) came out at 5 µM; the TNFα-stimulated NF-κB activation (nuclear p65 staining) abolished, percent of microinjected HeLa cells was in the range of 50 to 70%; the inhibition of E-selectin expression, percent of microinjected HUVEC was 70 to 80%.

Regarding CERLLDDRHD[pS]GLD[pS]MKDEE [pp19, doubly phosphorylated IκBα peptide], the IC50 of inhibition of pIκBα ubiquitination (in vitro ubiquitination assay in HeLa extract) turned out to be 5 µM.
